Article PMC9482650, “Quantitative fragmentomics allow affinity mapping of interactomes” (Nature Communications, 2022)
Each block holds one binder with its values, some of them ahead of it.

What was measured:
Experiment in all cases: holdup assay
Parameters in all cases: key: below the threshold = too weak to quantify, mostly under pKd 3.1 to 4
[1] = molecular target: FRMPD2_2, Q68DX3
[2] = molecular target: T1, SIPA1L2, Q9P2F8
T1 sequence (Q9P2F8 945-1036, limits assumed, looked up): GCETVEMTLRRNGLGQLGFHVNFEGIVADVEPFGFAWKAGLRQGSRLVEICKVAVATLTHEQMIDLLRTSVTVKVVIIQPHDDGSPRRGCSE

[3] = molecular target: T2, GRIP1_2, Q9Y3R0
T2 sequence (Q9Y3R0 145-248, limits assumed, looked up): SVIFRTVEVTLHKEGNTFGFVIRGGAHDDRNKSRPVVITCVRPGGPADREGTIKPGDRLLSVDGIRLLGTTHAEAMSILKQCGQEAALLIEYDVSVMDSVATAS

[4] = molecular target: T3, SNTA1, Q13424
T3 sequence (Q13424 82-180, limits assumed, looked up): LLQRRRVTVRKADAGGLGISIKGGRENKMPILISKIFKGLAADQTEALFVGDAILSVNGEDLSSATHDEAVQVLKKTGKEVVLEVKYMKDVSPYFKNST

[5] = molecular target: Inadl_5, Q8NI35
[6] = molecular target: T4, MPP6, Q9NZW5
T4 sequence (Q9NZW5 125-219, limits assumed, looked up): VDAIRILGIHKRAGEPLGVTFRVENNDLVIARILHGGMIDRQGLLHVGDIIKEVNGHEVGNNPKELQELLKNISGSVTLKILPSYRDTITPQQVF

[7] = molecular target: DLG4_3, P78352
[8] = molecular target: T5, HTRA3, P83110
T5 sequence (P83110 354-453, limits assumed, looked up): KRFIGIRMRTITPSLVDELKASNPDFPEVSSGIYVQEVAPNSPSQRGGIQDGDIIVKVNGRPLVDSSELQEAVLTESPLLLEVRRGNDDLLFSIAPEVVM

[9] = molecular target: T6, DFNB31_1, Q9P202
T6 sequence (Q9P202 135-233, limits assumed, looked up): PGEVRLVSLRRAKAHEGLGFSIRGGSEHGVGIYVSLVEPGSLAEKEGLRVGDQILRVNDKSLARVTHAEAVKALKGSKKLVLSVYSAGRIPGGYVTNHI

[10] = molecular target: Inadl_8, Q8NI35
[11] = molecular target: T7, PDZD2_2, O15018
T7 sequence (O15018 329-429, limits assumed, looked up): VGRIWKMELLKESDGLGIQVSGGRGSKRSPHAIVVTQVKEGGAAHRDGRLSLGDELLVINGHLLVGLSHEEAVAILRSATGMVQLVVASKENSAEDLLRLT

[12] = molecular target: T8, APBA3_1, O96018
T8 sequence (O96018 389-490, limits assumed, looked up): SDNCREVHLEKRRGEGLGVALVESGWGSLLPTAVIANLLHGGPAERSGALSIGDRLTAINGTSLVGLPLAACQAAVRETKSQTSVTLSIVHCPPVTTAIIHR

[13] = molecular target: GRASP, Q7Z6J2
[14] = molecular target: DLG1_2, Q12959
[15] = molecular target: MAGI2_4, Q86UL8
[16] = molecular target: T9, NHERF3_1, Q5T2W1
T9 sequence (Q5T2W1 4-100, limits assumed, looked up): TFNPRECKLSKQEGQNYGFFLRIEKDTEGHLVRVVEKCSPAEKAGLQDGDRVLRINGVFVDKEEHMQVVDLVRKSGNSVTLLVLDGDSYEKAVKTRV

[17] = molecular target: T10, SNTG2, Q9NY99
T10 sequence (Q9NY99 68-166, limits assumed, looked up): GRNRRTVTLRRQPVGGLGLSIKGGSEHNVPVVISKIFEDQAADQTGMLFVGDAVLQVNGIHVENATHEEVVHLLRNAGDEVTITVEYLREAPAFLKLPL

[18] = molecular target: T11, LRRC7, Q96NW7
T11 sequence (Q96NW7 1440-1537, limits assumed, looked up): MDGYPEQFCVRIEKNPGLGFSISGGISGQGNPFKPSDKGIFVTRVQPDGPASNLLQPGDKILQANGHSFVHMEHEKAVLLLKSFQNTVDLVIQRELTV

[19] = molecular target: T12, APBA2_2, Q99767
T12 sequence (Q99767 654-744, limits assumed, looked up): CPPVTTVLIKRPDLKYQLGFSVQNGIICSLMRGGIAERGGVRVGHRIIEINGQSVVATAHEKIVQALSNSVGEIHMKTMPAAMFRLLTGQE

[20] = molecular target: NHERF4_2, Q86UT5
[21] = molecular target: T13, PTPN13_1, Q12923
T13 sequence (Q12923 1088-1188, limits assumed, looked up): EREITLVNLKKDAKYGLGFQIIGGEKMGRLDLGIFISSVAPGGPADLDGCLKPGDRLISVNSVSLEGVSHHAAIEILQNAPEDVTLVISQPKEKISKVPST

[22] = molecular target: MAGI2_6, Q86UL8
[23] = molecular target: LNX1_3, Q8TBB1
[24] = molecular target: SNX27, Q96L92
[25] = molecular target: FRMPD2_3, Q68DX3
[26] = plain residues with an end cap or a label only (N-terminal biotin on a linker: ttds)
[27] = plain residues with an end cap or a label only (N-terminal biotin on a linker: ado-ado)
[28] = plain residues with an end cap or a label only (N-terminal biotin on a linker: ahx)

Sequence of MAGI2_6, Q86UL8 (Q86UL8 1141-1229): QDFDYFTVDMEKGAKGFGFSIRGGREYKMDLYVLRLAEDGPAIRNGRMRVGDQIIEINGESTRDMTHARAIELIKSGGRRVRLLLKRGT
Sequence of FRMPD2_2, Q68DX3 (Q68DX3 944-1038): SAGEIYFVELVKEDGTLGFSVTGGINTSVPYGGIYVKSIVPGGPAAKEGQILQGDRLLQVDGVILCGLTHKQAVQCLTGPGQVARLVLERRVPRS
Sequence of LNX1_3, Q8TBB1 (Q8TBB1 500-596): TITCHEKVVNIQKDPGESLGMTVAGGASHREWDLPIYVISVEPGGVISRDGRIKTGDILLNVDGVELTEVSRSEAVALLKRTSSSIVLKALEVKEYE
Sequence of DLG1_2, Q12959 (Q12959 314-412): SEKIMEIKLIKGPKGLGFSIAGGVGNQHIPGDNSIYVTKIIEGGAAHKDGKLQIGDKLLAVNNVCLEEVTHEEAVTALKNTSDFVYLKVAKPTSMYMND
Sequence of FRMPD2_3, Q68DX3 (Q68DX3 1073-1166): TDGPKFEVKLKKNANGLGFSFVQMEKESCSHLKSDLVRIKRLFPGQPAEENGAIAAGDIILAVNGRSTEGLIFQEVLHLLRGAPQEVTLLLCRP
Sequence of NHERF4_2, Q86UT5 (Q86UT5 220-308): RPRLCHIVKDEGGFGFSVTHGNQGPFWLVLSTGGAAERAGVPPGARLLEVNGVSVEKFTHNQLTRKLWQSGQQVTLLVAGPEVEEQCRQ
Sequence of DLG4_3, P78352 (P78352 306-403): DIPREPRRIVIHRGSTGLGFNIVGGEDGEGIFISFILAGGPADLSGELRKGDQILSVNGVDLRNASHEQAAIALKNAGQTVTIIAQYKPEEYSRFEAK
Sequence of MAGI2_4, Q86UL8 (Q86UL8 772-865): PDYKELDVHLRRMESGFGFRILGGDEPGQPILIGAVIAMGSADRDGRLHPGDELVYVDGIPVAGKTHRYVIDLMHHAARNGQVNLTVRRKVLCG
Sequence of Inadl_5, Q8NI35 (Q8NI35 673-780): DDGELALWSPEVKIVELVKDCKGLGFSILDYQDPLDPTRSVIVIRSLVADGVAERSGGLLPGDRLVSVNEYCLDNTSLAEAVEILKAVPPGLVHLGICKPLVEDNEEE
Sequence of Inadl_8, Q8NI35 (Q8NI35 1425-1530): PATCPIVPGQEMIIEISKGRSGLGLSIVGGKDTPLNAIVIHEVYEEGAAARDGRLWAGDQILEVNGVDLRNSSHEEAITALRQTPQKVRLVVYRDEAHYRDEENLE
Sequence of GRASP, Q7Z6J2 (Q7Z6J2 96-193): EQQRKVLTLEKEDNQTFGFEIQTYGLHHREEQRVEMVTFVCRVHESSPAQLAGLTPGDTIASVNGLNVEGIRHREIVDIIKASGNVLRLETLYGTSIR

Binder: PDSYHRRDFW [U2AF2, P26368]
- pKd [1, 27]: below the threshold
- pKd [2, 27]: below the threshold
- pKd [3, 27]: below the threshold
- pKd [4, 27]: below the threshold
- pKd [5, 27]: below the threshold
- pKd [6, 27]: below the threshold
- pKd [7, 27]: below the threshold
- pKd [8, 27]: 4.01
- pKd [9, 27]: 3.57
- pKd [10, 27]: 3.48
- pKd [11, 27]: below the threshold
- pKd [12, 27]: below the threshold
- pKd [13, 27]: below the threshold
- pKd [14, 27]: below the threshold
- pKd [15, 27]: 3.54
- pKd [16, 27]: below the threshold
- pKd [17, 27]: 3.72
- pKd [18, 27]: below the threshold
- pKd [19, 27]: below the threshold
- pKd [20, 27]: 3.64
- pKd [21, 27]: below the threshold
- pKd [22, 27]: below the threshold
- pKd [23, 27]: below the threshold
- pKd [24, 27]: 3.61
- pKd [25, 27]: below the threshold

Binder: NPDALPETLV [ARHGAP6, O43182]
- pKd [1, 26]: 4.99
- pKd [2, 26]: below the threshold
- pKd [3, 26]: below the threshold
- pKd [4, 26]: 5.05
- pKd [5, 26]: below the threshold
- pKd [6, 26]: below the threshold
- pKd [7, 26]: 3.46
- pKd [8, 26]: below the threshold
- pKd [9, 26]: 4.1
- pKd [10, 26]: below the threshold
- pKd [11, 26]: 4.12
- pKd [12, 26]: below the threshold
- pKd [13, 26]: below the threshold
- pKd [14, 26]: 4.49
- pKd [15, 26]: 4.42
- pKd [16, 26]: 4.55
- pKd [17, 26]: 4.95
- pKd [18, 26]: below the threshold
- pKd [19, 26]: below the threshold
- pKd [20, 26]: below the threshold
- pKd [21, 26]: below the threshold
- pKd [22, 26]: 4.31
- pKd [23, 26]: below the threshold
- pKd [24, 26]: 4.7
- pKd [25, 26]: below the threshold

Further lines, results first:

- pKd [1, 26]: 4.22
- pKd [2, 26]: below the threshold
- pKd [3, 26]: below the threshold
- pKd [4, 26]: 4.7
- pKd [5, 26]: below the threshold
- pKd [6, 26]: below the threshold
- pKd [7, 26]: 3.8
- pKd [8, 26]: below the threshold
- pKd [9, 26]: 3.91
- pKd [10, 26]: below the threshold
- pKd [11, 26]: 4.12
- pKd [12, 26]: below the threshold
- pKd [13, 26]: below the threshold
- pKd [14, 26]: 5.18
- pKd [15, 26]: 4.02
- pKd [16, 26]: below the threshold
- pKd [17, 26]: 4.55
- pKd [18, 26]: below the threshold
- pKd [19, 26]: below the threshold
- pKd [20, 26]: below the threshold
- pKd [21, 26]: below the threshold
- pKd [22, 26]: 4.39
- pKd [23, 26]: below the threshold
- pKd [24, 26]: 4.49
- pKd [25, 26]: below the threshold
Binder: GRLLGLETNV [ARHGEF26, Q96DR7]

- pKd [1, 26]: below the threshold
- pKd [2, 26]: below the threshold
- pKd [3, 26]: below the threshold
- pKd [4, 26]: 3.97
- pKd [5, 26]: below the threshold
- pKd [6, 26]: below the threshold
- pKd [7, 26]: 4.31
- pKd [8, 26]: below the threshold
- pKd [9, 26]: 4.02
- pKd [10, 26]: below the threshold
- pKd [11, 26]: 4.26
- pKd [12, 26]: below the threshold
- pKd [13, 26]: below the threshold
- pKd [14, 26]: 4.61
- pKd [15, 26]: below the threshold
- pKd [16, 26]: below the threshold
- pKd [17, 26]: 3.63
- pKd [18, 26]: below the threshold
- pKd [19, 26]: below the threshold
- pKd [20, 26]: below the threshold
- pKd [21, 26]: below the threshold
- pKd [22, 26]: below the threshold
- pKd [23, 26]: below the threshold
- pKd [24, 26]: below the threshold
- pKd [25, 26]: below the threshold
Binder: QRPYRRESEI [KCNJ12, Q14500]

- pKd [1, 28]: 4.25
- pKd [2, 28]: below the threshold
- pKd [3, 28]: below the threshold
- pKd [4, 28]: below the threshold
- pKd [5, 28]: below the threshold
- pKd [6, 28]: below the threshold
- pKd [7, 28]: below the threshold
- pKd [8, 28]: 5.51
- pKd [9, 28]: 4.28
- pKd [10, 28]: 3.87
- pKd [11, 28]: 5.95
- pKd [12, 28]: below the threshold
- pKd [13, 28]: below the threshold
- pKd [14, 28]: 4.75
- pKd [15, 28]: 4.12
- pKd [16, 28]: below the threshold
- pKd [17, 28]: below the threshold
- pKd [18, 28]: 4.94
- pKd [19, 28]: below the threshold
- pKd [20, 28]: below the threshold
- pKd [21, 28]: below the threshold
- pKd [22, 28]: 5.48
- pKd [23, 28]: below the threshold
- pKd [24, 28]: 5.15
- pKd [25, 28]: below the threshold
Binder: AKPQPVDSWV [ARVCF, O00192]
